This test concerns murine brain endothelial cells (MBEC). Description: Nitrite production by MBEC exposed to cytokines / immunomodulators (Griess assay). The test is classed as cell-based. The note with it: IFN 100 U/ml, TNF 500 U/ml, IL-1 10 U/ml, endotoxin 1 μg/ml; 48 hours. (Nitrite, measured by Griess reagent, commonly stands in for NO production.)

Procedure: Endothelial cells--MBEC's were isolated from murine brain microvessels and cultured on gelatin-coated tissue culture dishes in DME/F12 media supplemented with 2% PPPHS, 5% FBS (Hyolone), 50 μg/ml ECGF (Biomed Tech), and 10 U/ml heparin (Sigma) as previously described (Belloni et al. 1989). The endothelial derivation of MBEC's was determined by the presence of a non-thrombogenic surface to platelets and immunofluorescent staining for Factor VIII related antigen. MBEC's were used between passage 6-9 for all experiments.
Nitrite Assay--MBE cells were cultured on gelatin-coated well plates (Corning) in 100 μl of culture medium and treated with cytokines at 3 days post-confluence. After 48 hours, nitrite production was determined by a colorimetric assay. […] All treatments were performed in triplicate and data presented as the mean value±standard deviation.

B1: IFN: recombinant murine gamma-interferon (protein, UniProt P01580 23-155, looked up)
Interferon gamma: HGTVIESLESLNNYFNSSGIDVEEKSLFLDIWRNWQKDGDMKILQSQIISFYLRLFEVLKDNQAISNNISVIESHLITTFFSNSKAKKDAFMSIAKFEVNNPQVQRQAFNELIRVVHQLLPESSLRKRKRSRC
As for B1, the “effect on nitrite production by MBEC” value is on record as “no effect”.

Source of the values: patent US5770623A, “Argine antagonists for inhibition of systemic hypotension associated with nitric oxide production or endothelial derived relaxing factor” (Board of Regents, The University of Texas System, priority 1995, dated 1998).
